Test results from patent US20100021473A1 (DOMANTIS, published 2010).
One block for each binder: values may come before it.

Legend:
CD38 on cells = target: T1, CD38 on cells (UniProt P28907 1-300); assay: FACS on RPMI cells (CD38+/138+)
T1 construct: whole, on cells; Endogenous CD38 on cell lines used in FACS or microscopy; also called DOM11; T10
Method: (§1) All dAbs were analysed by FACS on antigen positive and negative cell lines using the following method.
(§2) The determination of cell binding by FACS was carried out as follows: cells were centrifuged at 250 g for 5 minutes and the growth medium was removed. The cells were resuspended in FACS incubation buffer at 4° C. at a density of 2×10⁶ cells/ml. The cells were blocked by incubating for 15 minutes at 4° C. in FACS incubation buffer. Fifty microliters of 2× stock of primary antibody (anti-CD38 FITC, anti-CD138 FITC or mIgG1 FITC conjugated isotype control (all BD Biosciences) was added; or dAb was added to cells in FACS incubation buffer and incubated for 30-60 minutes at 4° C. The cells were then washed once in FACS incubation buffer. One hundred microliters of secondary antibody (rabbit anti-Vk) was added to cells in FACS incubation buffer and incubated 30-60 minutes at 4° C. The cells were washed once in FACS incubation buffer. Then 100 ul of 1× tertiary antibody was added to the cells in FACS incubation buffer and incubated for 30-60 mins at 4° C. (for dAbs the tertiary antibody is anti-rabbit FITC (Sigma)). The cells were washed twice in FACS incubation buffer. The cell pellet was resuspend in 200 ul FACS incubation buffer+viable cell marker (BD Viaprobe). The cells were then analyzed by flow cytometry.

[1] = target: T2, CD38 immobilised on Biacore CM5 chip (UniProt P28907 43-300, limits assumed); assay: SPR (Biacore) co-injection on immobilised CD38, dAbs at 500 nM
T2 construct: also called DOM11
Method: (§3) Anti-CD38, anti-CEA and anti-CD56 dAbs that were identified as FACS positive clones were in addition analysed by Biacore using the following procedure. The CM5 chip surface was activated by flushing 1:1 EDC/NHS (0.4M1-ethyl-3-(3-dimenthylaminopropyl)-carbodiimide in water; 0.1 M N-hydroxysuccinimide in water) at a flow rate of 5 uL/min for 10 minute contact time. CD38 was immobilised at 500 nM in Acetate buffer pH4 at 5 uL/min this was repeated until the RUs reached between 500 and 1000 (low density). CEA and CD56 were coupled in acetate buffer pH 4.5. Any excess reactive groups were deactivated by running 1M ethanolamine-HCl over the CM5 chip (again 5 uL/min for 7 mins). The affinities of the anti-CD38, anti-CEA and anti-CD56 dAbs were measured on the biacore as described above.
Epitope mapping was performed to determine whether anti-CD38 dAbs bound to different epitopes on CD38. The assay was performed on BIAcore as described above using a chip coated at medium density (RUs of ˜2000). CD38 was coated on to a CM5 chip at medium density as described above. Using the co-inject function, the first anti-CD38 dAbs was injected at a concentration of 500 nM. Both the first and second anti-CD38 dabs were the co-injected at the same concentration (500 nM). As both dAbs bind different epitopes, the RUs during the second injection increase beyond the level of binding of the first dAb.

CD138 on cells [2] = target: T3, CD138 on cells (UniProt P18827 23-310); assay: FACS on RPMI cells (CD38+/CD138+), dAb at 500 nM
T3 construct: whole, on cells; Endogenous CD138 on cell lines used in FACS; also called DOM12; syndecan-1
T3 sequence (looked up): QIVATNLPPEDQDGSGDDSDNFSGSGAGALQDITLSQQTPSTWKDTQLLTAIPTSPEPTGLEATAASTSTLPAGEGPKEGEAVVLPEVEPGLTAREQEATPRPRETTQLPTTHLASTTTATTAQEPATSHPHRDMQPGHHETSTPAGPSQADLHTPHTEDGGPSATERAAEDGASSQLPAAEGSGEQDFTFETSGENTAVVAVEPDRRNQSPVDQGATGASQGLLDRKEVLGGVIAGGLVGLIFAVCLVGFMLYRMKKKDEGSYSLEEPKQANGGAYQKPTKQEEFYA
Method: as §1, §2

CD138 on cells [3] = target: T3, CD138 on cells; assay: FACS on HUVEC cells (CD38-/CD138+)
Method: as §1, §2

[4] = target: T2, CD38 immobilised on Biacore CM5 chip; assay: SPR (Biacore), CD38 immobilised on CM5 chip
Method: as §3

[5] = target: T2, CD38 immobilised on Biacore CM5 chip; assay: Biacore, CD38 immobilised; lower end of the printed range 330-500 nM (Table 8, affinity maturation experiment)
[6] = target: T2, CD38 immobilised on Biacore CM5 chip; assay: Biacore, CD38 immobilised; upper end of the printed range 330-500 nM (Table 8, affinity maturation experiment)

binding result (CD38 on cells): binds
binding result [1]: binds
B1: DOM11-23 (other)
chain: DIQMTQSPSSLSASVGDRVTITCRASQSINVRLIWYQQKPGKDPKLLIYSSSHLQSGVPSRFSGSGSGTDFTLTISSLQPEDFATYYCQQYHYTPFTFGQGTKVEIKR
notes: Anti-CD38 dAb monomer

binding result (CD138 on cells [2]): binds
B2: DOM12-45 (other)
chain: DIQMTQSPSSLSASVGDRVTITCRASQDIGDRLRWYQQKPGKAPKLLIYHGSRLESGVPSRFSGSRSGTDFTLTISSLQPEDFATYYCQQQWFRPYTFGQGTKVEIKR
notes: Anti-CD138 dAb monomer

binding result (CD138 on cells [3]): no binding
Kd [4]: 250 nM
Kd [5]: 330 to 500 nM
Kd [6]: 330 to 500 nM
B3: DOM11-3 (other)
chain: DIQMTQSPSSLSASVGDRVTITCRASQNIDSRLSWYQQKPGKAPKLLIYRTSVLQSGVPSRFSGSGSGTDFTLTISSLQPEDFATYYCQQWDMFPLTFGQGTKVEVK
notes: Anti-CD38 domain antibody (dAb) monomer; also called DOM11-3A
